# From patent publication US20240409629A1 (CHIA TAI TIANQING PHARMACEUTICAL GROUP, published 2024)
# Where two headings read alike, the source gives them in different places.
# How the values were obtained:
# [1] = molecular target: T1, human CLDN18.2 (human); assay: FACS, NUGC-4 cells (natural CLDN18.2)
# T1 construct: also called claudin18.2
# Protocol: (§1) Based on the FACS method, the binding activity of anti-CLDN18.2 humanized antibodies for the cell lines KATOIII (Cell Bank of the Chinese Academy of Sciences) and NUGC-4 (Cell Bank of the Chinese Academy of Sciences) naturally expressing CLDN18.2 was analyzed. […] See Example 3 for the specific method.
# [2] = molecular target: T1, human CLDN18.2; assay: FACS, KATOIII cells (natural CLDN18.2)
# Protocol: as §1
# [3] = molecular target: T1, human CLDN18.2; assay: cell-based or functional assay
# [4] = molecular target: T1, human CLDN18.2; assay: cell-based or functional assay; remark: listed apart in the source
# [5] = molecular target: T1, human CLDN18.2; assay: cell-based or functional assay; remark: listed apart in the source
# [6] = molecular target: T1, human CLDN18.2; assay: cell-based or functional assay; remark: listed apart in the source
# [7] = molecular target: T1, human CLDN18.2; assay: FACS, KATOIII cells (natural CLDN18.2); remark: listed apart in the source
# Protocol: as §1
# [8] = molecular target: T1, human CLDN18.2; assay: FACS, NUGC-4 cells (natural CLDN18.2); remark: listed apart in the source
# Protocol: as §1
# [9] = molecular target: T1, human CLDN18.2; assay: cell-based or functional assay; remark: listed apart in the source
# [10] = molecular target: T1, human CLDN18.2; assay: cell-based or functional assay; remark: listed apart in the source
# [11] = molecular target: T1, human CLDN18.2; assay: FACS, KATOIII cells (natural CLDN18.2); remark: listed apart in the source
# Protocol: (§2) Based on the FACS method, the binding activity of anti-CLDN18.2 antibodies for the cell line U2OS-CLDN18.2 overexpressing CLDN18.2 and the cell lines KATOIII (Cell Bank of the Chinese Academy of Sciences) and NUGC-4 (Cell Bank of the Chinese Academy of Sciences) naturally expressing CLDN18.2 was analyzed.
# (§3) The cell concentration was adjusted with PBS, and cells (U2OS-CLDN18.2, KATOIII, or NUGC-4 cells) were added to a 96-well plate at 3×10⁵ cells/well, then the test antibodies at different concentrations were added to each well of the 96-well plate, and the mixture was incubated at 4° C. for 60 min. […] The supernatant was discarded, the cells were washed 3 times with pre-cooled PBS buffer, PE-Goat Anti-Human IgG Fcγ (Jackson immunoresearch, Cat. No. 109-116-170) diluted at 1:200 was added at 100 μL/well, and the mixture was incubated at 4° C. for 30 min. Cells were washed 3 times with pre-cooled PBS buffer and resuspended in 100 μL of PBS buffer, and then the fluorescence signals were detected using a flow cytometer (Sartorius, iQUE3). The binding ability of the anti-CLDN18.2 antibodies for CLDN18.2 was measured by mean fluorescence intensity (MFI) of staining.
# [12] = molecular target: T2, human CLDN18.1 (human, UniProt P56856 1-261); assay: FACS, U2OS-CLDN18.1 cells; MFI against 2-fold the IgG1 isotype control
# T2 construct: also called claudin18.1
# Protocol: (§4) Based on the FACS method, the binding activity of anti-CLDN18.2 antibodies for the cell line U2OS-CLDN18.1 overexpressing CLDN18.1 (SEQ ID NO: 2) was analyzed. The cell concentration was adjusted with PBS, and the U2OS-CLDN18.1 cells were added to a 96-well plate at 3×10⁵ cells/well, then the test antibodies were added to each well of the 96-well plate, the final concentration of the antibody was 200 nM, and the mixture was incubated at 4° C. for 60 min. The supernatant was discarded, the cells were washed 3 times with pre-cooled PBS buffer, PE-Goat Anti-Human IgG Fcγ (Jackson immunoresearch, Cat. No. 109-116-170) diluted at 1:200 was added at 100 μL/well, and the mixture was incubated at 4° C. for 30 min. Cells were washed 3 times with pre-cooled PBS buffer and resuspended in 100 μL of PBS buffer, and then the fluorescence signals were detected using a flow cytometer (Sartorius, iQUE3). The nonspecific binding of the anti-CLDN18.2 antibodies for U2OS-CLDN18.1 cells was measured by mean fluorescence intensity (MFI) of staining. The IgG1 isotype control antibody (prepared in-house, with the heavy and light chain amino acid sequences as set forth in SEQ ID NOs: 67 and 68 in the present disclosure) was used as the control, and 2-fold the IgG1 isotype control antibody was used as the benchmark, thus determining the presence or absence of nonspecific binding.
# [13] = molecular target: T1, human CLDN18.2; assay: FACS, NUGC-4 cells (natural CLDN18.2); remark: listed apart in the source
# Protocol: as §2, §3
# [14] = molecular target: T1, human CLDN18.2; assay: FACS, U2OS-CLDN18.2 cells
# Protocol: as §2, §3
# [15] = molecular target: T2, human CLDN18.1; assay: FACS, U2OS-CLDN18.1 cells, antibody at 200 nM
# Protocol: as §4
# [16] = molecular target: T1, human CLDN18.2; assay: cell-based or functional assay; remark: listed apart in the source
# [17] = molecular target: T1, human CLDN18.2; assay: cell-based or functional assay; remark: listed apart in the source
Binder,"ADCC EC50, PBMC effector cells, KATOIII target cells [4] [pM]","ADCC EC50, PBMC effector cells, NIH-3T3-CLDN18.2 target cells [4] [pM]","ADCC EC50, PBMC effector cells, NUGC-4 target cells [4] [pM]","CDC EC50, NIH-3T3-CLDN18.2 target cells [5] [pM]",EC50 [7] [pM],EC50 [8] [pM],"CDC EC50, NIH-3T3-CLDN18.2 target cells [9] [pM]","ADCC EC50, Jurkat-CD16a v158-NFAT-luciferase effector cells, NIH-3T3-CLDN18.2 target cells [10] [pM]","ADCC EC50, Jurkat-CD16a v158-NFAT-luciferase effector cells, NUGC-4 target cells [10] [pM]","ADCC Maximum killing (%), PBMC effector cells, KATOIII target cells [4] [%]","ADCC Maximum killing (%), PBMC effector cells, NIH-3T3-CLDN18.2 target cells [4] [%]","ADCC Maximum killing (%), PBMC effector cells, NUGC-4 target cells [4] [%]",other results
"humanized antibody hz28G3-1.1 (antibody, human IgG1, kappa, V domains shown) VH: QVQLVQSGAEVKKPGASVKVSCKTSGYSFTDYLMLWVRQAPGQGLEWMGNINPYYGRTTYALKFKGRVTMTVDRSTSTVYMELSSLRSEDTAVYYCARDGYSLRNAMDYWGQGTLVTVSS VL: DIVMTQSPDSLAVSLGERATINCKSSQSLFNSGNQKNYLAWYQQKPGQPPKLLIYGASTRESGVPDRFSGSGSGTDFTLTISSLQAEDVAVYYCQNAHSYPYTFGQGTKVEIKR",48,330,70,290,,,,,,11.5,28.1,4.9,"EC50 [1]: 11100 pM; EC50 [2]: 8110 pM; ADCC EC50, Jurkat-CD16a v158-NFAT-luciferase effector cells, KATOIII target cells [3]: 139 pM; ADCC EC50, Jurkat-CD16a v158-NFAT-luciferase effector cells, U2OS-CLDN18.2 target cells [3]: 16 pM"
"15F9 (antibody, human IgG1, kappa, V domains shown) VH: QVQLVQSGSELKKPGASVKVSCKASGYTFTNYGINWVRQAPGQGLEWMGWINPNTGETTYAEEFKGRFVFSLDTSVSTAYLQISSLKAEDTAVYFCARLYYGNRFDSWGQGTLVTVSS VL: DIVMTQSPDSLAVSLGERATINCKSSQSLLNSGNQRNYLTWYQQKPGQPPKLLIYWASTRESGVPDRFSGSGSGTDFTLTISSLQAEDVAVYYCQNAYYYPLTFGGGTKVEIKR",30,180,300,250,,,,,,10.6,22.6,4.34,"ADCC EC50, PBMC effector cells, KATOIII target cells [6]: ~15.5 pM; ADCC Maximum killing (%), PBMC effector cells, KATOIII target cells [6]: 19.5%"
"humanized antibody hz28G3-1.3 (antibody, human IgG1, kappa, V domains shown) VH: QVQLVQSGAEVKKPGASVKVSCKTSGYSFTDYLMLWVRQAHGQSLEWMGNINPYYGRTTYALKFKGRVTMTVDRSTSTVYMELSSLRSEDTAVYYCARDGYSLRNAMDYWGQGTLVTVSS VL: DIVMTQSPDSLAVSLGERATINCKSSQSLFNSGNQKNYLAWYQQKPGQPPKLLIYGASTRESGVPDRFSGSGSGTDFTLTISSLQAEDVAVYYCQNAHSYPYTFGQGTKVEIKR",1030,510,4600,310,,,,,,25.3,44.3,19,"EC50 [1]: 10500 pM; EC50 [2]: 7010 pM; ADCC EC50, Jurkat-CD16a v158-NFAT-luciferase effector cells, KATOIII target cells [3]: 217 pM; ADCC EC50, Jurkat-CD16a v158-NFAT-luciferase effector cells, U2OS-CLDN18.2 target cells [3]: 23 pM"
"chimeric antibody xi10D8 (antibody, human IgG1, kappa, V domains shown, Mouse variable regions on human IgG1/kappa; defucosylated, expressed in FUT8-knockout CHO-S cells; also called chimeric 10D8) VH: QIQLAQSGPELKKPGETVKVSCKASGYTFKNYGMNWVKQAPGKGLKWMGWININTGEPRYAEEFKGRIAFSLETSASTAYLLINNLKNEDTATYFCARYGYGNSFPYWGQGTLVTVSA VL: DIVMTQSPSSLTVTVGEKVTMSCKSSQSLLNSGNQRNYLTWYQQKPGQPPKLLIYWASTRESGVPDRFTGSGSGTAFTLTVSSVQAEDLAVYYCQNDYSYPLTFGAGTKLEMKR",,,,,,,,,,,,,"EC50 [11]: 13900 pM; binding result [12]: no binding (tested: 200 nM); EC50 [13]: 512000 pM; EC50 [14]: 19500 pM; MFI [15]: 8030; CDC EC50, U2OS-CLDN18.2 target cells [16]: 11400 pM"
"chimeric antibody xi22F12 (antibody, human IgG1, kappa, V domains shown, Mouse variable regions on human IgG1/kappa; defucosylated, expressed in FUT8-knockout CHO-S cells; also called chimeric 22F12) VH: QVQLKESGPGLVAPSQSLSITCTVSGFSLTSYGVYWVRQPPGKGLEWLGVIWAGGSTNYNSALMSRLSINKDNSKSQVFLKMNSLQTDDTAMYYCARDRGRLLSMDYWGQGTSVTVSS VL: DIVMTQSPSSLSVSAGEKVTMSCRSSQSLLNSGNQKNYLAWYQQKPGQPPKLLIYGASTRESGVPDRFTGSGSGTDFTLTIGSVQAEDLAVYYCQNVHFFPFTFGSGTKLEIKR",,,,,,,,,,,,,"ADCC EC50, Jurkat-CD16a v158-NFAT-luciferase effector cells, KATOIII target cells [17]: 20 pM; ADCC EC50, Jurkat-CD16a v158-NFAT-luciferase effector cells, NUGC-4 target cells [17]: 83 pM; ADCC EC50, Jurkat-CD16a v158-NFAT-luciferase effector cells, U2OS-CLDN18.2 target cells [17]: 20 pM; EC50 [11]: 3680 pM; binding result [12]: no binding (tested: 200 nM); EC50 [13]: 20000 pM; EC50 [14]: 25100 pM; ADCC EC50, PBMC effector cells, NUGC-4 target cells [6]: 680 pM; ADCC Maximum killing (%), PBMC effector cells, NUGC-4 target cells [6]: 46.1%; MFI [15]: 8940; CDC EC50, KATOIII target cells [16]: 103 pM; CDC EC50, U2OS-CLDN18.2 target cells [16]: 2090 pM"

# Now from value to binder, other results behind:
"ADCC EC50, PBMC effector cells, KATOIII target cells [4] [pM]","ADCC EC50, PBMC effector cells, NIH-3T3-CLDN18.2 target cells [4] [pM]","ADCC EC50, PBMC effector cells, NUGC-4 target cells [4] [pM]","CDC EC50, NIH-3T3-CLDN18.2 target cells [5] [pM]",EC50 [7] [pM],EC50 [8] [pM],"CDC EC50, NIH-3T3-CLDN18.2 target cells [9] [pM]","ADCC EC50, Jurkat-CD16a v158-NFAT-luciferase effector cells, NIH-3T3-CLDN18.2 target cells [10] [pM]","ADCC EC50, Jurkat-CD16a v158-NFAT-luciferase effector cells, NUGC-4 target cells [10] [pM]",Binder,"ADCC Maximum killing (%), PBMC effector cells, KATOIII target cells [4] [%]","ADCC Maximum killing (%), PBMC effector cells, NIH-3T3-CLDN18.2 target cells [4] [%]","ADCC Maximum killing (%), PBMC effector cells, NUGC-4 target cells [4] [%]",other results
,,,,6380,13400,890,14,30,"humanized antibody hz40F6-2.4 (antibody, human IgG1, kappa, V domains shown) VH: QVQLVESGGGVVQPGRSLRLSCTVSGFTLTSYGVYWVRQAPGKGLEWVAVVWAGGNTNYNSALKGRFTISKDNSKSTLYLQMNSLRAEDTAVYYCARDRGRLLAMDYWGQGTLVTVSS VL: DIVMTQSPDSLAVSLGERATINCKSSQSLLNSGNQKNYLAWYQQKPGQPPKLLIYGASTRESGVPDRFSGSGSGTDFTLTISSLQAEDVAVYYCQNDYFFPFTFGQGTKVEIKR",,,,
100,310,120,,6440,10600,550,24,17,"humanized antibody hz40F6-1.4 (antibody, human IgG1, kappa, V domains shown) VH: QVQLVESGGGVVQPGRSLRLSCTVSGFTLTSYGVYWVRQAPGKGLEWVAVVWAGGNTNYNSALKGRFTISKDNSKSTLYLQMNSLRAEDTAVYYCARDRGRLLAMDYWGQGTLVTVSS VL: DIVMTQSPDSLAVSLGERATINCKSSQSLLNSGNQKNYLAWYQQKPGQPPKLLIYGASTRESGVPDRFTGSGSGTDFTLTISSLQAEDVAVYYCQNDHFFPFTFGQGTKVEIKR",13.3,24.6,2.83,
,,,,6130,16200,900,14,28,"humanized antibody hz40F6-2.3 (antibody, human IgG1, kappa, V domains shown) VH: QVQLVESGGGVVQPGRSLRLSCAASGFTLTSYGVYWVRQAPGKGLEWVAVVWAGGNTNYADALKGRFTISKDNSKSTLYLQMNSLRAEDTAVYYCARDRGRLLAMDYWGQGTLVTVSS VL: DIVMTQSPDSLAVSLGERATINCKSSQSLLNSGNQKNYLAWYQQKPGQPPKLLIYGASTRESGVPDRFSGSGSGTDFTLTISSLQAEDVAVYYCQNDYFFPFTFGQGTKVEIKR",,,,
